Assay in all cases: purified protein
Holding throughout (conditions): pH and temperature of the kinetic assay not given

Substrate in data set [1]: COC(=O)[C@@H](C)Oc1ccc(Oc2ncc(C(F)(F)F)cc2Cl)cc1
Substrate in data set [2]: CCOC(=O)[C@@H](C)Oc1ccc(Oc2cnc3cc(Cl)ccc3n2)cc1
Substrate in data set [3]: C#CCOC(=O)[C@@H](C)Oc1ccc(Oc2ncc(Cl)cc2F)cc1
Substrate in data set [4]: CCOC(=O)[C@@H](C)Oc1ccc(Oc2nc3ccc(Cl)cc3o2)cc1
Substrate in data set [5]: COC(=O)C(C)Oc1ccc(Oc2ccc(Cl)cc2Cl)cc1
Substrate in data set [6]: CCCCOC(=O)[C@@H](C)Oc1ccc(Oc2ccc(C(F)(F)F)cn2)cc1

B1: FeH (FE-hydrolyzing carboxylesterase) (Rhodococcus sp. JPL-2) (protein)
chain: MSDIHGVCDARFSALREALERNLDSGEDVGASIAVTLDGEPVVDIWGGSMDAGGSRPWERDTITNVWSCSKTVTALAALMLVDRGQLDLDAPVARYWSDFAANGKEGILVRHLLSHTSGVSGWDQPFTMDDLADTTKATELLAAQAPWWEPGTASGYHALNYGHLIGEVVRRVDGRTLTGFIEEEISRPLGADFRLGVARSDYSRVSEVIPPPPLPIDFATLDPASVMVKTFTGPPADATAAWGDGWREAEIGAANGHSNARALARIQSVIACGGRVGGVRLLSADTIDAIFDEQSYGVDLVLGVPVRFGVGFGLPTPESVPFVPEGRICFWGGWGGSQIIVDTERRMTVAYVMNKMGPGLLGSDRSAEYVSAAFAAVP
A word on the Km: it is the substrate concentration at which the rate is half of its maximum. One may read the kcat as the maximal rate divided by the concentration of active sites. The term kcat/Km denotes the second-order rate constant that governs catalysis at low substrate concentration. Take B1: the Km in data set [1] amounted to 390 µM; in data set [2] it was 230 µM; in data set [3], 290 µM; in data set [4], 200 µM; in data set [5] it was 410 µM; in data set [6], 360 µM. The kcat in data set [1] worked out at 0.37 s⁻¹; in data set [2] it was 0.75 s⁻¹; in data set [3], 0.61 s⁻¹; in data set [4], 0.7 s⁻¹; in data set [5] it was 0.33 s⁻¹; in data set [6], 0.59 s⁻¹. The kcat/Km came out at 940 M⁻¹ s⁻¹ in data set [1]; 3250 M⁻¹ s⁻¹ in data set [2]; 2090 M⁻¹ s⁻¹ in data set [3]; 3520 M⁻¹ s⁻¹ in data set [4]; 810 M⁻¹ s⁻¹ in data set [5]; 1650 M⁻¹ s⁻¹ in data set [6].

The values above are taken from PMC4507534.
